# Measured values taken from IntAct's records for PubMed 24613396.
# B1: F-box only protein 11 (Homo sapiens), Q86XK2 (parent)
# chain: MNSVRAANRRPRRVSRPRPVQQQQQQPPQQPPPQPPQQQPPQQQPPPPPQQQQQQQPPPPPPPPPPLPQERNNVGERDDDVPADMVAEESGPGAQNSPYQLRRKTLLPKRTACPTKNSMEGASTSTTENFGHRAKRARVSGKSQDLSAAPAEQYLQEKLPDEVVLKIFSYLLEQDLCRAACVCKRFSELANDPILWKRLYMEVFEYTRPMMHPEPGKFYQINPEEYEHPNPWKESFQQLYKGAHVKPGFAEHFYSNPARYKGRENMLYYDTIEDALGGVQEAHFDGLIFVHSGIYTDEWIYIESPITMIGAAPGKVADKVIIENTRDSTFVFMEGSEDAYVGYMTIRFNPDDKSAQHHNAHHCLEITVNCSPIIDHCIIRSTCTVGSAVCVSGQGACPTIKHCNISDCENVGLYITDHAQGIYEDNEISNNALAGIWVKNHGNPIIRRNHIHHGRDVGVFTFDHGMGYFESCNIHRNRIAGFEVKAYANPTVVRCEIHHGQTGGIYVHEKGRGQFIENKIYANNFAGVWITSNSDPTIRGNSIFNGNQGGVYIFGDGRGLIEGNDIYGNALAGIQIRTNSCPIVRHNKIHDGQHGGIYVHEKGQGVIEENEVYSNTLAGVWVTTGSTPVLRRNRIHSGKQVGVYFYDNGHGVLEDNDIYNHMYSGVQIRTGSNPKIRRNKIWGGQNGGILVYNSGLGCIEDNEIFDNAMAGVWIKTDSNPTLRRNKIHDGRDGGICIFNGGRGLLEENDIFRNAQAGVLISTNSHPILRKNRIFDGFAAGIEITNHATATLEGNQIFNNRFGGLFLASGVNVTMKDNKIMNNQDAIEKAVSRGQCLYKISSYTSYPMHDFYRCHTCNTTDRNAICVNCIKKCHQGHDVEFIRHDRFFCDCGAGTLSNPCTLAGEPTHDTDTLYDSAPPIESNTLQHN
# Variants of: B1
# Conditions: with prdm1_human PRDM1, O75626
# Chain of prdm1_human PRDM1, O75626 (O75626 whole entry): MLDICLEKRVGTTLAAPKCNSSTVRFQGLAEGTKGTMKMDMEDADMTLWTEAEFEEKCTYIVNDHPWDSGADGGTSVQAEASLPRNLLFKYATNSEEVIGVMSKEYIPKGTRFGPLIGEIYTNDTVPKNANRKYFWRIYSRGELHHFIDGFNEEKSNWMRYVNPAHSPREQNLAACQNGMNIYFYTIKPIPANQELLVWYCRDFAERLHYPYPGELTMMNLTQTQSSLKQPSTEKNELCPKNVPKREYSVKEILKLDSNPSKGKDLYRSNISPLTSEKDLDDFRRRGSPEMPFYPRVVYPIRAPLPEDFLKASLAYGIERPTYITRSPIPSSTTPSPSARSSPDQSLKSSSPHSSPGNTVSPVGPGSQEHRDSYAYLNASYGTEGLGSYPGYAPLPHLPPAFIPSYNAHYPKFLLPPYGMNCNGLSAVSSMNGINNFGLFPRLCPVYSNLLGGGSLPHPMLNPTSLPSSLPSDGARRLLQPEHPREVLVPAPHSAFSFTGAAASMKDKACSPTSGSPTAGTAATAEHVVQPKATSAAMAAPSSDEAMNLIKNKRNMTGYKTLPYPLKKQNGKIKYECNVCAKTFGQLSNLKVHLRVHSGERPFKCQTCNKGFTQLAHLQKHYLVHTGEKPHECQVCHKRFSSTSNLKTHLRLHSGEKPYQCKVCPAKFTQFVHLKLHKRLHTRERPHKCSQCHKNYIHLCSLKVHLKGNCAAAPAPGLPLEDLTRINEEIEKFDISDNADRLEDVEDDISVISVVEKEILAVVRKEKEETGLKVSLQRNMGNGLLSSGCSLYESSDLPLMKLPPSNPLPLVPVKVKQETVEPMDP
row,Variant,effect of a mutation on the interaction
1,Q575L,disrupting interaction strength
